The Human Domainome abundance scans (Beltran et al. 2025)
± gives the uncertainty stated by the source.

B1: CD2-associated protein, residues 109 to 169; numbered along this chain, Q9Y5K6 (parent)
chain: KKRQCKVLFEYIPQNEDELELKVGDIIDINEEVEEGWWSGTLNNKLGLFPSNFVKELEVTD

Variants of: B1
Assay: abundance fitness (aPCA) (normalised: wild type 0, dead -1); higher = more abundant; growth selection in yeast, the domain comes from the species named
Conditions: Homo sapiens

Variant | abundance fitness
S39K | 0.166 ± 0.091
V7A | -0.03 ± 0.076
V7F | -0.826 ± 0.38
V7S | -0.399 ± 0.13
V7M | -0.884 ± 0.24
D61V | -0.312 ± 0.24
D61K | -0.582 ± 0.35
D61H | 0.346 ± 0.23
D61T | -0.329 ± 0.26
D61S | -0.692 ± 0.34
D61Q | -0.014 ± 0.24
D61L | -0.301 ± 0.14
D61R | -0.261 ± 0.18
D61P | 0.04 ± 0.32
D61A | -0.29 ± 0.22
K45Q | 0.04 ± 0.26
K45Y | -0.273 ± 0.3
K45I | -0.433 ± 0.29
K45R | -0.066 ± 0.078
K45C | -0.065 ± 0.17
K45L | -0.638 ± 0.14

Variant | abundance fitness
K45F | -0.695 ± 0.22
K45V | -0.556 ± 0.16
F49K | -0.524 ± 0.3
F49S | -0.707 ± 0.16
F49D | -0.815 ± 0.4
F49A | -0.755 ± 0.31
E16G | -0.303 ± 0.15
E16D | -0.203 ± 0.27
E16Q | -0.007 ± 0.27
E18P | -0.986 ± 0.34
E18V | -0.989 ± 0.44
E18L | -0.684 ± 0.19
E18R | -0.792 ± 0.22
E18Q | -0.395 ± 0.23
E10W | -0.904 ± 0.31
E10N | -0.064 ± 0.16
E10Q | -0.146 ± 0.15
E10M | -0.579 ± 0.34
E10L | -0.841 ± 0.16
E10T | -0.265 ± 0.12
E10C | -0.266 ± 0.23

Variant | abundance fitness
Q4Y | 0.503 ± 0.19
Q4R | 0.209 ± 0.17
Q4W | -0.117 ± 0.25
Q4L | 0.271 ± 0.21
Q4S | 0.134 ± 0.22
I12W | -0.311 ± 0.15
I12E | -0.122 ± 0.19
I12S | -0.138 ± 0.13
I12F | -0.026 ± 0.21
I12V | -0.218 ± 0.18
I12A | -0.03 ± 0.13
I12D | -0.303 ± 0.23
L42H | -0.252 ± 0.32
L42R | -0.388 ± 0.084
L42Q | -0.432 ± 0.4
L42F | -0.616 ± 0.23
L42C | -0.174 ± 0.16
L42E | -0.922 ± 0.34
L42S | 0.042 ± 0.1
L42G | -0.451 ± 0.12
L42P | -0.732 ± 0.41

Variant | abundance fitness
N43E | -0.333 ± 0.27
N43K | -0.544 ± 0.33
N43S | -0.337 ± 0.11
N43L | -0.489 ± 0.1
N43P | -0.791 ± 0.36
N43Y | -0.553 ± 0.34
N43M | -0.144 ± 0.17
N43T | -0.835 ± 0.21
Y11H | -0.286 ± 0.34
Y11L | -0.951 ± 0.21
Y11T | -0.458 ± 0.34
Y11M | -0.897 ± 0.45
N52M | -0.12 ± 0.17
N52S | -0.02 ± 0.079
N52P | -0.228 ± 0.12
N52R | 0.048 ± 0.079
N52A | -0.067 ± 0.092
N52Q | -0.255 ± 0.11
N52W | -0.454 ± 0.12
N52D | -0.016 ± 0.1
N52C | 0.114 ± 0.13
